Results reported in patent publication US20150268247A1, “Assay for Screening of Anti-Viral Compounds That Inhibit Specific Interaction Interfaces Between Cullin5 and an ElonginB/ElonginC/ CBF-beta/HIV-1 Vif Complex” (UNIVERSITY OF ROCHESTER, priority 2012, published 2015).

Molecular target: T1, Cul5(N) (Homo sapiens, UniProt Q93034, L345D/V341R)
T1 construct: GST with 3C protease site (N, cleaved yes); made in house; host or cells: E. coli BL21(DE3), as for VifC/EloB/C
T1 sequence (Q93034 with tags, fused parts or gaps V341R/L345D): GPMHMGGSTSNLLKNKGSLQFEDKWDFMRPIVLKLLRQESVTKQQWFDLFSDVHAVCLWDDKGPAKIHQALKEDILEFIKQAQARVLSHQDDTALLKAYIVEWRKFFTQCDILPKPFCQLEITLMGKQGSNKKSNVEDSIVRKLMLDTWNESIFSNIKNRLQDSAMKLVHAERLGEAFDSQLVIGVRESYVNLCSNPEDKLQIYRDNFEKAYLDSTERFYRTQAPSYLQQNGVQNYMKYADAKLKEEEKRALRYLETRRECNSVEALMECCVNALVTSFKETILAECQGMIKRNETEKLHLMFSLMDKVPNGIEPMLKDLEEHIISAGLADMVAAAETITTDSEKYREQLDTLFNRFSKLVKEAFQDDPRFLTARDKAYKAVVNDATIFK
Assay: ITC titration of Cul5(N) to CBFβ alone
Assay type: binding
Conditions: FIG. 4D
Description: ITC experiments were conducted with a VP-ITC isothermal titration calorimeter (GE Healthcare) at temperatures ranging from 293.15 to 308.15 K using a reference power of 15 μcal s^−1 and a 307 rpm stirring rate. Purified protein was dialyzed for 8 h at 4° C. against 1300 volumes of ITC buffer A [0.125 M NaCl, 0.02 M HEPES (pH 7.4), 0.0002 M TCEP] or ITC buffer B [0.125 M NaCl, 0.02 M phosphate (pH 7.4), 0.0002 M TCEP]. Twenty-nine 10 μl aliquots of protein in the syringe were injected into the sample cell at time intervals ranging from 240 to 360 s. The concentration of protein in the syringe ranged from 120 to 210 μM, while the concentration of protein in the sample cell ranged from 12 to 27 μM. Errors in the thermodynamic parameters were obtained from the standard deviation resulting from average values with at least two replicates. […] As such, for all protein-into-protein experiments, the heats of injection were accounted for by subtracting the average heat of the last three injections from each data point of an experiment. All data were fit with the “One Set of Sites” curve-fitting model to determine the parameters Ka, n, and AH using the Origin software v7.0 (GE Healthcare). ΔG was calculated from ΔG=−RT ln Ka, where R=1.9872 cal K^−1 mol^−1, and T=absolute temperature (Kelvin). ΔS was calculated from the equation, ΔG=ΔH−TΔS.

B1: CBFβ: Recombinant human core-binding factor β subunit isoform 2 (protein, listed as Homo sapiens)
chain: MGHHHHHHLEVLFQGPPRVVPDQRSKFENEEFFRKLSRECEIKYTGFRDRPHEERQARFQNACRDGRSEIAFVATGTNLSLQFFPASWQGEQRQTPSREYVDLEREAGKVYLKAPMILNGVCVIWKGWIDLQRLDGMGCLEFDEERAQQEDALAQQAFEEARRRTREFEDRDRSHREEMEVRVSQLLAVTGKKTTRP
B1 was tested. Which “interaction of CBFβ with Cul5(N) alone” value did it give?
Its value is “did not interact”.
